Test results reported in paper PMC3683130.

Target: FLAG-tagged PUD-1 (C. elegans)
Assay: affinity purification with mass spectrometry; anti-FLAG IP (M2 beads) from worms with single-copy FLAG::PUD-1, N2 as control; eluted with 3xFLAG peptide; silver-stained bands cut and identified by LC-MS/MS

Chain of FLAG-tagged PUD-1 (C. elegans) (main, as listed by the source): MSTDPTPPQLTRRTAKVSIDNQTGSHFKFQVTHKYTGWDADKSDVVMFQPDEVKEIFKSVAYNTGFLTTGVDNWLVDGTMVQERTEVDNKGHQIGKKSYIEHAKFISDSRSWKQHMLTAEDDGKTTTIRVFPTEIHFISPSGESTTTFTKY

- stoichiometry N: 1
Substance: Endogenous PUD-2 (natural protein)
